Publication PMC12802153, “Cryo-EM reveals the structural heterogeneity and conformational flexibility of multidrug efflux pumps MdtB and MdtF” (mBio, 2025)

Molecular target: the molecule itself
Test: SEC; Superdex 200 Increase 10/300 GL, 25 mM HEPES pH 7.5, 100 mM NaCl, 0.03% DDM; elution volume compared with the trimeric molecular weight

B1: MdtB, multidrug efflux HAE-RND transporter from Escherichia coli (natural protein)
chain: MQVLPPSSTGGPSRLFIMRPVATTLLMVAILLAGIIGYRALPVSALPEVDYPTIQVVTLYPGASPDVMTSAVTAPLERQFGQMSGLKQMSSQSSGGASVITLQFQLTLPLDVAEQEVQAAINAATNLLPSDLPNPPVYSKVNPADPPIMTLAVTSTAMPMTQVEDMVETRVAQKISQISGVGLVTLSGGQRPAVRVKLNAQAIAALGLTSETVRTAITGANVNSAKGSLDGPSRAVTLSANDQMQSAEEYRQLIIAYQNGAPIRLGDVATVEQGAENSWLGAWANKEQAIVMNVQRQPGANIISTADSIRQMLPQLTESLPKSVKVTVLSDRTTNIRASVDDTQFELMMAIALVVMIIYLFLRNIPATIIPGVAVPLSLIGTFAVMVFLDFSINNLTLMALTIATGFVVDDAIVVIENISRYIEKGEKPLAAALKGAGEIGFTIISLTFSLIAVLIPLLFMGDIVGRLFREFAITLAVAILISAVVSLTLTPMMCARMLSQESLRKQNRFSRASEKMFDRIIAAYGRGLAKVLNHPWLTLSVALSTLLLSVLLWVFIPKGFFPVQDNGIIQGTLQAPQSSSFANMAQRQRQVADVILQDPAVQSLTSFVGVDGTNPSLNSARLQINLKPLDERDDRVQKVIARLQTAVDKVPGVDLFLQPTQDLTIDTQVSRTQYQFTLQATSLDALSTWVPQLMEKLQQLPQLSDVSSDWQDKGLVAYVNVDRDSASRLGISMADVDNALYNAFGQRLISTIYTQANQYRVVLEHNTENTPGLAALDTIRLTSSDGGVVPLSSIAKIEQRFAPLSINHLDQFPVTTISFNVPDNYSLGDAVQAIMDTEKTLNLPVDITTQFQGSTLAFQSALGSTVWLIVAAVVAMYIVLGILYESFIHPITILSTLPTAGVGALLALLIAGSELDVIAIIGIILLIGIVKKNAIMMIDFALAAEREQGMSPREAIYQACLLRFRPILMTTLAALLGALPLMLSTGVGAELRRPLGIGMVGGLIVSQVLTLFTTPVIYLLFDRLALWTKSRFARHEEEA
notes: MdtB, RND inner membrane transporter of the MdtABC system, Escherichia coli; gene PCR amplified from E. coli genomic DNA, cloned into pET21a(+) between NdeI and XhoI; wild type; the whole gene appears to have been cloned. ~110 kDa band on SDS-PAGE; also called homotrimeric MdtB; source: E. coli BL21ΔacrB acrD mdtABC (NKE1317), purified (2% DDM extraction, Ni-NTA, SEC in 0.03% DDM); for cryo-EM …
In the case of B1, the “stoichiometry N” value is reported as 3.

B2: MdtF, multidrug efflux HAE-RND transporter from Escherichia coli (natural protein)
chain: MANYFIDRPVFAWVLAIIMMLAGGLAIMNLPVAQYPQIAPPTITVSATYPGADAQTVEDSVTQVIEQNMNGLDGLMYMSSTSDAAGNASITLTFETGTSPDIAQVQVQNKLQLAMPSLPEAVQQQGISVDKSSSNILMVAAFISDNGSLNQYDIADYVASNIKDPLSRTAGVGSVQLFGSEYAMRIWLDPQKLNKYNLVPSDVISQIKVQNNQISGGQLGGMPQAADQQLNASIIVQTRLQTPEEFGKILLKVQQDGSQVLLRDVARVELGAEDYSTVARYNGKPAAGIAIKLAAGANALDTSRAVKEELNRLSAYFPASLKTVYPYDTTPFIEISIQEVFKTLVEAIILVFLVMYLFLQNFRATIIPTIAVPVVILGTFAILSAVGFTINTLTMFGMVLAIGLLVDDAIVVVENVERVIAEDKLPPKEATHKSMGQIQRALVGIAVVLSAVFMPMAFMSGATGEIYRQFSITLISSMLLSVFVAMSLTPALCATILKAAPEGGHKPNALFARFNTLFEKSTQHYTDSTRSLLRCTGRYMVVYLLICAGMAVLFLRTPTSFLPEEDQGVFMTTAQLPSGATMVNTTKVLQQVTDYYLTKEKDNVQSVFTVGGFGFSGQGQNNGLAFISLKPWSERVGEENSVTAIIQRAMIALSSINKAVVFPFNLPAVAELGTASGFDMELLDNGNLGHEKLTQARNELLSLAAQSPNQVTGVRPNGLEDTPMFKVNVNAAKAEAMGVALSDINQTISTAFGSSYVNDFLNQGRVKKVYVQAGTPFRMLPDNINQWYVRNASGTMAPLSAYSSTEWTYGSPRLERYNGIPSMEILGEAAAGKSTGDAMKFMADLVAKLPAGVGYSWTGLSYQEALSSNQAPALYAISLVVVFLALAALYESWSIPFSVMLVVPLGVVGALLATDLRGLSNDVYFQVGLLTTIGLSAKNAILIVEFAVEMMQKEGKTPIEAIIEAARMRLRPILMTSLAFILGVLPLVISHGAGSGAQNAVGTGVMGGMFAATVLAIYFVPVFFVVVEHLFARFKKA
notes: MdtF, RND inner membrane transporter of the MdtEF system, Escherichia coli; gene PCR amplified from E. coli genomic DNA, cloned into pET21a(+) between NdeI and XhoI; wild type; the whole gene appears to have been cloned. ~110 kDa band on SDS-PAGE; source: E. coli BL21ΔacrB acrD mdtABC (NKE1317), purified (2% DDM extraction, Ni-NTA, SEC in 0.03% DDM)
With B2 the “stoichiometry N” value was 3.
